Experiment [1] concerns the target ErbB3 on rat Schwann cells (rat) (UniProt Q62799). Nature of the experiment: cell-based or functional assay.
Experiment [2] addresses ErbB4 on neonatal rat cardiomyocytes (rat) (UniProt Q62956). Nature of the experiment: cell-based or functional assay.

The results in this text go back to US20220402985A1.

Values joined by “and” are separate entries in the source; they are usually repeats but may differ in a detail not shown here. Equal entries are not always repeated.

Chain of ErbB4 on neonatal rat cardiomyocytes (rat) (Q62956 26-1308): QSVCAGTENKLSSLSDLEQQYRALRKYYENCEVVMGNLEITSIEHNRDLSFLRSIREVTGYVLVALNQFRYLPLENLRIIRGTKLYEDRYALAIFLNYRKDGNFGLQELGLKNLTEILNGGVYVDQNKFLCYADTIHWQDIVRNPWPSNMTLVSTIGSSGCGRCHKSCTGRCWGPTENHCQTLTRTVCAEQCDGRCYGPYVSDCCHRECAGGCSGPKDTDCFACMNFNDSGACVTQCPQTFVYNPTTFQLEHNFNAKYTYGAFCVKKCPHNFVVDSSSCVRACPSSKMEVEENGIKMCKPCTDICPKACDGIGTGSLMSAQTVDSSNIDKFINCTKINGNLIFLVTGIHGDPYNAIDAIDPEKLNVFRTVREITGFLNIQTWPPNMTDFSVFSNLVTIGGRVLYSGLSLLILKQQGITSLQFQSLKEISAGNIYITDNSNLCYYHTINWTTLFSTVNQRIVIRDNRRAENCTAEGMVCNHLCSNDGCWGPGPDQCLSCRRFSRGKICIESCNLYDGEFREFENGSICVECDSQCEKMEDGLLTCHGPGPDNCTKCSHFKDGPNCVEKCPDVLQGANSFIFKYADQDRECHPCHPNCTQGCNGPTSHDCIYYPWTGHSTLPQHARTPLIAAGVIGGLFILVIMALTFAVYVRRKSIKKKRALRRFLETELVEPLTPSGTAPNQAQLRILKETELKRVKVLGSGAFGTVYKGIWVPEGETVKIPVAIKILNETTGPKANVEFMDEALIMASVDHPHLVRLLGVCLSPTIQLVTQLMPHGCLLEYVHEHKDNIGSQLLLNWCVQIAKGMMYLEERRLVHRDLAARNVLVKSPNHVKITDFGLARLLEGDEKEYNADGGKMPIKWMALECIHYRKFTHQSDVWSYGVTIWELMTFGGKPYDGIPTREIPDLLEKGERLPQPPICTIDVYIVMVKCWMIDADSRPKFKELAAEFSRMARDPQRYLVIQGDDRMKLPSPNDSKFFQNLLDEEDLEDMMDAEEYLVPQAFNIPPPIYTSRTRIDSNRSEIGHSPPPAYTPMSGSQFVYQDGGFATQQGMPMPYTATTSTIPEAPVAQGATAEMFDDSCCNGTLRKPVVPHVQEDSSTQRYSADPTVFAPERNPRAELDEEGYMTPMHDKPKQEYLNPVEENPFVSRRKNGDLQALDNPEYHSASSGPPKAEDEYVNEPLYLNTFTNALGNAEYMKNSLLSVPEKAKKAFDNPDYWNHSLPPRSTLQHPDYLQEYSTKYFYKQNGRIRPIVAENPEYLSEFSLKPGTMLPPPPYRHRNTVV
Chain of ErbB3 on rat Schwann cells (rat) (Q62799 20-1339): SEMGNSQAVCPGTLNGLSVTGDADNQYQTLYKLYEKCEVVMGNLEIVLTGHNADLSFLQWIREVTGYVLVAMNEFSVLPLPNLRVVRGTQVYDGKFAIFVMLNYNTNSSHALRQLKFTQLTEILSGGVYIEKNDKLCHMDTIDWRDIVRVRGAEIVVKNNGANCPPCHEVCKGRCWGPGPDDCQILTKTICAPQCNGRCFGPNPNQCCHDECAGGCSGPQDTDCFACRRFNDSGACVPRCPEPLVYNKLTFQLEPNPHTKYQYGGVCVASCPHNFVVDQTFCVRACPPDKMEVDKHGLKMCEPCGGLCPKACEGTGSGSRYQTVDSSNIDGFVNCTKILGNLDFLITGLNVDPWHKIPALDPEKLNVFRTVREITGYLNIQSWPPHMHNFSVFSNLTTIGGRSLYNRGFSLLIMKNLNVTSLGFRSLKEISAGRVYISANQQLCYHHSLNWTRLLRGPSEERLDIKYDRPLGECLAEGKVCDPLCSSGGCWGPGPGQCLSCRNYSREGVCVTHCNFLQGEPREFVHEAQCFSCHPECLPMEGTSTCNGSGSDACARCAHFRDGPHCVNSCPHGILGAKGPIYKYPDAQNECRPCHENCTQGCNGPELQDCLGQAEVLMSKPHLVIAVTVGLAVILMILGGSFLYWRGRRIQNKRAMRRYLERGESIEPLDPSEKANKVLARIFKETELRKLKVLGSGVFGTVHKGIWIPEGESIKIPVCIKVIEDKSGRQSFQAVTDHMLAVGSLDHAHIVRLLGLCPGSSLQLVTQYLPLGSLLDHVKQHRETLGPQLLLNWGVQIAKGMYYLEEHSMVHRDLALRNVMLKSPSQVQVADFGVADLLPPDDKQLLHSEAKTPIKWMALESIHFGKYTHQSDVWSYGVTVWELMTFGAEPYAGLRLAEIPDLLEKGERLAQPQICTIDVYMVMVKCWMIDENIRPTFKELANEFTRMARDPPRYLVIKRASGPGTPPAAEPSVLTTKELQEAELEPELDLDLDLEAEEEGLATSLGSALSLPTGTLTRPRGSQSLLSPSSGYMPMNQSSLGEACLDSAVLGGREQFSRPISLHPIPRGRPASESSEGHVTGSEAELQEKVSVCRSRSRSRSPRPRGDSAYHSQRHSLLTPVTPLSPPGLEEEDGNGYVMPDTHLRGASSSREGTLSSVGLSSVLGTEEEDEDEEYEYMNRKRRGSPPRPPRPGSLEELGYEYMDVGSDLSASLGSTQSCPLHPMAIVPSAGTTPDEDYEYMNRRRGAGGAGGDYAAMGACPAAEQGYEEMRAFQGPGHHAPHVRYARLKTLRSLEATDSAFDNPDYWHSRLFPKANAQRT

B1: huNRG1(S177-Q237)(NRGE1A)::GG::huFcSEFL2 (Pb) (Fc fusion)
chain: SHLVKCAENDKSFCVNGGECFMIEGPSNPSRYLCKCPNEFTGDRCQEDFMASFYKAEELYQGGDKTHTCPPCPAPELLGGPSVFLFPPKPKDTLMISRTPEVTCVVVDVSHEDPEVKFNWYVDGVEVHNAKTKPCEEQYGSTYRCVSVLTVLHQDWLNGKEYKCKVSNKALPAPIEKTISKAKGQPREPQVYTLPPSREEMTKNQVSLTCLVKGFYPSDIAVEWESNGQPENNYKTTPPVLDSDGSFFLYSKLTVDKSRWQQGNVFSCSVMHEALHNHYTQKSLSLSPGK
B1 showed a Schwann cells (SC) (ErbB3) Avg EC50 in experiment [1] of more than 10000 nM. For the same molecule, in experiment [2], the CM % Agonism AVG was determined as 72%, the Cardiomyocyte (CM) (ErbB4) Avg EC50 is 1.84 nM and the Selectivity SC/CM is more than 5500.

B2: huNRG1(S177-Q237)(NRGE1D)::GG::huFcSEFL2 (Pb) (Fc fusion)
chain: SHLVKCGESHKSFCVNGGECYMVEGSSIPSRYLCKCPNEFTGDRCQEDFMASFYKAEELYQGGDKTHTCPPCPAPELLGGPSVFLFPPKPKDTLMISRTPEVTCVVVDVSHEDPEVKFNWYVDGVEVHNAKTKPCEEQYGSTYRCVSVLTVLHQDWLNGKEYKCKVSNKALPAPIEKTISKAKGQPREPQVYTLPPSREEMTKNQVSLTCLVKGFYPSDIAVEWESNGQPENNYKTTPPVLDSDGSFFLYSKLTVDKSRWQQGNVFSCSVMHEALHNHYTQKSLSLSPGK
Consider B2, for which, in experiment [1], the Schwann cells (SC) (ErbB3) Avg EC50 was more than 10000 nM. In experiment [2], the CM % Agonism AVG amounted to 83%; the Cardiomyocyte (CM) (ErbB4) Avg EC50 is 0.303 nM and 0.33 nM; the Selectivity SC/CM was more than 10000.

B3: huNRG1(S177-Q237)(NRGE1G)::GG::huFcSEFL2 (Pb) (Fc fusion)
chain: SHLVKCGEKHKSFCVNGGECYMVEGSSIPSRYLCKCPNEFTGDRCQNDFMASFYKAEELYQGGDKTHTCPPCPAPELLGGPSVFLFPPKPKDTLMISRTPEVTCVVVDVSHEDPEVKFNWYVDGVEVHNAKTKPCEEQYGSTYRCVSVLTVLHQDWLNGKEYKCKVSNKALPAPIEKTISKAKGQPREPQVYTLPPSREEMTKNQVSLTCLVKGFYPSDIAVEWESNGQPENNYKTTPPVLDSDGSFFLYSKLTVDKSRWQQGNVFSCSVMHEALHNHYTQKSLSLSPGK
For B3, the Schwann cells (SC) (ErbB3) Avg EC50 in experiment [1] was more than 10000 nM. In experiment [2], this molecule came in with a CM % Agonism AVG of 84%, a Cardiomyocyte (CM) (ErbB4) Avg EC50 of 0.218 nM and a Selectivity SC/CM of more than 10000.

B4: huNRG1(S177-Q237)(NRGE1C)::GG::huFcSEFL2 (Pb) (Fc fusion)
chain: SHLVKCGEKHKSFCVNGGECFMIEGPSNPSRYLCKCPNEFTGDRCQEDFMASFYKAEELYQGGDKTHTCPPCPAPELLGGPSVFLFPPKPKDTLMISRTPEVTCVVVDVSHEDPEVKFNWYVDGVEVHNAKTKPCEEQYGSTYRCVSVLTVLHQDWLNGKEYKCKVSNKALPAPIEKTISKAKGQPREPQVYTLPPSREEMTKNQVSLTCLVKGFYPSDIAVEWESNGQPENNYKTTPPVLDSDGSFFLYSKLTVDKSRWQQGNVFSCSVMHEALHNHYTQKSLSLSPGK
In turn, B4 had a Schwann cells (SC) (ErbB3) Avg EC50 in experiment [1] of more than 10000 nM. For the same molecule, in experiment [2], the CM % Agonism AVG stood at 82%; the Cardiomyocyte (CM) (ErbB4) Avg EC50 was 0.476 nM and 0.41 nM; the Selectivity SC/CM is more than 10000.

B5: huNRG1(S177-Q237)(NRGE1E)::GG::huFcSEFL2 (Pb) (Fc fusion)
chain: SHLVKCGENDKSFCVNGGECFMIEGPSNPSRYLCKCPNEFTGDRCQNDFMASFYKAEELYQGGDKTHTCPPCPAPELLGGPSVFLFPPKPKDTLMISRTPEVTCVVVDVSHEDPEVKFNWYVDGVEVHNAKTKPCEEQYGSTYRCVSVLTVLHQDWLNGKEYKCKVSNKALPAPIEKTISKAKGQPREPQVYTLPPSREEMTKNQVSLTCLVKGFYPSDIAVEWESNGQPENNYKTTPPVLDSDGSFFLYSKLTVDKSRWQQGNVFSCSVMHEALHNHYTQKSLSLSPGK
Turning to B5, in experiment [1], the Schwann cells (SC) (ErbB3) Avg EC50 was more than 10000 nM. In experiment [2], this molecule showed a CM % Agonism AVG of 83%, a Cardiomyocyte (CM) (ErbB4) Avg EC50 of 0.995 nM and a Selectivity SC/CM of more than 10000.

B6: huNRG1(S177-Q237)(NRGE1F)::GG::huFcSEFL2 (Pb) (Fc fusion)
chain: SHLVKCAENDKSFCVNGGECYMVEGSSIPSRYLCKCPNEFTGDRCQNDFMASFYKAEELYQGGDKTHTCPPCPAPELLGGPSVFLFPPKPKDTLMISRTPEVTCVVVDVSHEDPEVKFNWYVDGVEVHNAKTKPCEEQYGSTYRCVSVLTVLHQDWLNGKEYKCKVSNKALPAPIEKTISKAKGQPREPQVYTLPPSREEMTKNQVSLTCLVKGFYPSDIAVEWESNGQPENNYKTTPPVLDSDGSFFLYSKLTVDKSRWQQGNVFSCSVMHEALHNHYTQKSLSLSPGK
Molecule B6 came in with a Schwann cells (SC) (ErbB3) Avg EC50 in experiment [1] of more than 10000 nM. In experiment [2], this molecule showed a CM % Agonism AVG of 90%, a Cardiomyocyte (CM) (ErbB4) Avg EC50 of 0.65 nM and a Selectivity SC/CM of more than 10000.

B7: huNRG1(S177-Q237)(NRGE1H)::GG::huFcSEFL2 (Pb) (Fc fusion)
chain: SHLVKCGESHKSFCVNGGECFMIEGPSNPSRYLCKCPNEFTGDRCQNDFMASFYKAEELYQGGDKTHTCPPCPAPELLGGPSVFLFPPKPKDTLMISRTPEVTCVVVDVSHEDPEVKFNWYVDGVEVHNAKTKPCEEQYGSTYRCVSVLTVLHQDWLNGKEYKCKVSNKALPAPIEKTISKAKGQPREPQVYTLPPSREEMTKNQVSLTCLVKGFYPSDIAVEWESNGQPENNYKTTPPVLDSDGSFFLYSKLTVDKSRWQQGNVFSCSVMHEALHNHYTQKSLSLSPGK
In experiment [1], B7 gave a Schwann cells (SC) (ErbB3) Avg EC50 of more than 10000 nM. In experiment [2], this molecule yielded a CM % Agonism AVG of 88%, a Cardiomyocyte (CM) (ErbB4) Avg EC50 of 0.286 nM and a Selectivity SC/CM of more than 10000.

B8: huNRG1(S177-Q237)(NRGE1I)::GG::huFcSEFL2 (Pb) (Fc fusion)
chain: SHLVKCGENDKSFCVNGGECFMIEGPSNPSRYLCKCPNEFTGDRCQDDFMASFYKAEELYQGGDKTHTCPPCPAPELLGGPSVFLFPPKPKDTLMISRTPEVTCVVVDVSHEDPEVKFNWYVDGVEVHNAKTKPCEEQYGSTYRCVSVLTVLHQDWLNGKEYKCKVSNKALPAPIEKTISKAKGQPREPQVYTLPPSREEMTKNQVSLTCLVKGFYPSDIAVEWESNGQPENNYKTTPPVLDSDGSFFLYSKLTVDKSRWQQGNVFSCSVMHEALHNHYTQKSLSLSPGK
For B8, the Schwann cells (SC) (ErbB3) Avg EC50 in experiment [1] is more than 10000 nM. In experiment [2], this molecule displayed a CM % Agonism AVG of 67%, a Cardiomyocyte (CM) (ErbB4) Avg EC50 of 22.9 nM and a Selectivity SC/CM of 437.

B9: huNRG1(S177-Q237)(NRGE1B)::GG::huFcSEFL2 (Pb) (Fc fusion)
chain: SHLVKCGENDKSFCVNGGECYMVEGSSIPSRYLCKCPNEFTGDRCQEDFMASFYKAEELYQGGDKTHTCPPCPAPELLGGPSVFLFPPKPKDTLMISRTPEVTCVVVDVSHEDPEVKFNWYVDGVEVHNAKTKPCEEQYGSTYRCVSVLTVLHQDWLNGKEYKCKVSNKALPAPIEKTISKAKGQPREPQVYTLPPSREEMTKNQVSLTCLVKGFYPSDIAVEWESNGQPENNYKTTPPVLDSDGSFFLYSKLTVDKSRWQQGNVFSCSVMHEALHNHYTQKSLSLSPGK
Take B9: in experiment [1], the Schwann cells (SC) (ErbB3) Avg EC50 is more than 10000 nM. In experiment [2], this molecule displayed a CM % Agonism AVG of 76%, a Cardiomyocyte (CM) (ErbB4) Avg EC50 of 1.48 nM and a Selectivity SC/CM of more than 6700.

B10: huNRG1(S177-Q237)(NRGE1J)::GG::huFcSEFL2 (Pb) (Fc fusion)
chain: SHLVKCGENDKSFCVNGGECYMVEGSSIPSRYLCKCPNEFTGDRCQDDFMASFYKAEELYQGGDKTHTCPPCPAPELLGGPSVFLFPPKPKDTLMISRTPEVTCVVVDVSHEDPEVKFNWYVDGVEVHNAKTKPCEEQYGSTYRCVSVLTVLHQDWLNGKEYKCKVSNKALPAPIEKTISKAKGQPREPQVYTLPPSREEMTKNQVSLTCLVKGFYPSDIAVEWESNGQPENNYKTTPPVLDSDGSFFLYSKLTVDKSRWQQGNVFSCSVMHEALHNHYTQKSLSLSPGK
In the case of B10, in experiment [1], the Schwann cells (SC) (ErbB3) Avg EC50 was more than 10000 nM. In experiment [2], this molecule came in with a CM % Agonism AVG of 68%, a Cardiomyocyte (CM) (ErbB4) Avg EC50 of 14.1 nM and a Selectivity SC/CM of 710.
